The source of these data is patent US20120121596A1 (published 2012).

Residue numbers refer to the chain shown, from its start.

The target of assay [1] is HER3 on cells (MCF7 cells; MDA-175 cells) (UniProt P21860 20-1342, limits assumed). In words: cell-based or functional assay.
Assay [2] addresses HER3 (form not given) (human, UniProt P21860 20-643, limits assumed). Kind of assay: affinity maturation of DL11.
The target in assay [3] is T1, HER3-ECD-Fc (human, UniProt P21860 20-643, limits assumed).
T1 construct: extracellular domain; also called HER3-FC; HER3-IgG
In words: competition with 125I-HRG for HER3-ECD-Fc captured on anti-human antibody plates, antibody pre-bound, counts as % of control.

Assay [4] concerns the target T2, HER2-ECD (human, UniProt P04626 23-652).
T2 construct: extracellular domain
Kind of assay: phage IC50 (solution competition ELISA), compared to D1.5-201. In general terms: ELISA stands for enzyme-linked immunosorbent assay.

The target of assay [5] is T3, hEGFR-ECD (human, UniProt P00533 25-645).
T3 construct: extracellular domain
The assay is described as above.

The target of assay [6] is T1, HER3-ECD-Fc. Kind of assay: direct phage ELISA, proteins coated at 2 µg/ml, phage-Fab supernatant, OD450.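 Note: specificity test of dual-activity clones, with binding assessed across an antigen panel to check whether each recognises only its cognate target.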
For assay [7], the target named is T4, BSA (bovine, UniProt P02769).
T4 construct: also called bovine serum albumin
Described as above.

The target in assay [8] is T2, HER2-ECD. The description is as above.
The target in assay [9] is T5, HER4-ECD-Fc (human, UniProt Q15303 26-651, limits assumed).
T5 construct: extracellular domain
T5 sequence (looked up): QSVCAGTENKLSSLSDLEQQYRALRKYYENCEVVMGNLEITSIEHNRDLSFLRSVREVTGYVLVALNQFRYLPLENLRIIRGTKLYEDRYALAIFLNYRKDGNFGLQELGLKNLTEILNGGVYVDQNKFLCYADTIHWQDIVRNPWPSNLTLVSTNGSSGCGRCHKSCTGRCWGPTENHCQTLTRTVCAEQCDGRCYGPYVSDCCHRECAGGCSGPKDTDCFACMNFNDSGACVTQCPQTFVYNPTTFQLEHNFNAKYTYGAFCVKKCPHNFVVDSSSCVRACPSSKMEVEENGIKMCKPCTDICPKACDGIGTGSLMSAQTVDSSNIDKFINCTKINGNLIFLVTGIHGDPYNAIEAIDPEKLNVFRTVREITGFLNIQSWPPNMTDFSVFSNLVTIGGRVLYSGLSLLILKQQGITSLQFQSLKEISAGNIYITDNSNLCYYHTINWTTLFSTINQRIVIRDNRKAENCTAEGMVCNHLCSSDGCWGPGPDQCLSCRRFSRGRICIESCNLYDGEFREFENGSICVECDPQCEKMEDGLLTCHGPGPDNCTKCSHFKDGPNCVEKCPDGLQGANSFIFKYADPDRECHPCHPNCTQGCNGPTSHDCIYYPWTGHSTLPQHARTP
The assay is described as above.

For assay [10], the target named is T3, hEGFR-ECD. The description is as above.
For assay [11], the target named is T6, Erbitux.
T6 construct: also called cetuximab; C225; not shown: the constant regions
Described as above.

T4 sequence (P02769 25-607 limits assumed): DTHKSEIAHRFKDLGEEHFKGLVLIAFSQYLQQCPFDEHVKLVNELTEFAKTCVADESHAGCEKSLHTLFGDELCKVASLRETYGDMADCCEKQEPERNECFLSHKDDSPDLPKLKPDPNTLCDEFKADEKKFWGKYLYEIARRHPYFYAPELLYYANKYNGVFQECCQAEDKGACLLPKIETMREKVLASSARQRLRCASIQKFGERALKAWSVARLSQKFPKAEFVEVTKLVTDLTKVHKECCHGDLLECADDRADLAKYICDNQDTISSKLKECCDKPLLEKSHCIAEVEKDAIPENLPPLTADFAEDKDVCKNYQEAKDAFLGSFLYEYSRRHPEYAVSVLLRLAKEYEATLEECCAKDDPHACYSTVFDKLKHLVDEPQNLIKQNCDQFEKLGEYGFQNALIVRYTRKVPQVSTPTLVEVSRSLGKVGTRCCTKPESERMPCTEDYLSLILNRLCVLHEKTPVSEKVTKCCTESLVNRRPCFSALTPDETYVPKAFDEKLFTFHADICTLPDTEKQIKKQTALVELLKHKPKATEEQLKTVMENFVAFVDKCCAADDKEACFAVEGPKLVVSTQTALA

B1: DL11 (mIgG2A) (bispecific antibody, V domains shown)
VH: EVQLVESGGGLVQPGGSLRLSCAASGFTLSGDWIHWVRQAPGKGLEWLGEISAAGGYTDYADSVKGRFTISADTSKNTAYLQMNSLRAEDTAVYYCARESRVSFEAAMDYWGQGTLVTVSS
VL: DIQMTQSPSSLSASVGDRVTITCRASQDLATDVAWYQQKPGKAPKLLIYSASFLYSGVPSRFSGSGSGTDFTLTISSLQPEDFATYYCQQSEPEPYTFGQGTKVEIKR
In the case of B1, the “IC50 of inhibition of MDA-175 cell proliferation” value in assay [1] was in the range of 0.8 to 1 µg/mL.

B2: DL3-11f (antibody, V domains shown)
VH: B1 VH with L48V, R101K
VL: B1 VL with D28N, L29I
As to B2, the binding result in assay [2] is listed as “binds”.

B3: D1.5-103 (mIgG2A) (bispecific antibody, V domains shown)
VH: B1 VH with L29F, S30T, D32N, L48V, A53P, A54S, F104Y
VL: DIQMTQSPSSLSASVGDRVTITCRASQALGDSENGYADVAWYQQKPGKAPKLLIYEGSSLYSGVPSRFSGSGSGTDFTLTISSLQPEDFATYYCQQAAPSPYTFGQGTKVEIKR
As for B3, the “IC50 (read off the curve)” value in assay [3] is roughly 3 nM.

B4: D1.5-113 (mIgG2A) (bispecific antibody, V domains shown)
VH: B1 VH with L29F, S30T, D32N, L48V, A53P, A54S, F104Y
VL: DIQMTQSPSSLSASVGDRVTITCRASQSLLASHDGTPWVAWYQQKPGKAPKLLIYDASYLYSGVPSRFSGSGSGTDFTLTISSLQPEDFATYYCQQSTFAPYTFGQGTKVEIKR
For the molecule B4, in assay [3], the binding result is recorded as “binds”.

B5: D1.5-201-3 (phage-displayed Fab clone) (Fab, V domains shown)
VH: B1 VH with L29F, S30T, D32N, L48V, A53P, A54S, F104Y
VL: DIQMTQSPSSLSASVGDRVTITCRASQSLWAAYFAPVAWYQQKPGKAPKLLIYDGSYLYSGVPSRFSGSGSGTDFTLTISSLQPEDFATYYCQQRLPSPYTFGQGTKVEIKR
As to B5, the binding result in assay [4] and in [5] was “binds” in each case.

B6: D1.5-113 (phage-displayed Fab clone) (Fab, V domains shown)
VH: B1 VH with L29F, S30T, D32N, L48V, A53P, A54S, F104Y
VL: B4 VL
notes: EGFR/HER3 clone
As for B6, the binding result is recorded as “binds” in [6]; “no binding” in assay [7]; “no binding” in assay [8]; “no binding” in assay [9]; “binds” in assay [10]; “no binding” in [11].

B7: D1.5-100 (mIgG2A) (bispecific antibody, V domains shown)
VH: B1 VH with L29F, S30T, D32N, L48V, A53P, A54S, F104Y
VL: B1 VL
notes: also called anti-EGFR/HER3 antibody D1.5-100
As to B7, the “IC50 (read off the curve)” value in [3] is roughly 2 nM.

B8: D1.5-103 (phage-displayed Fab clone) (Fab, V domains shown)
VH: B1 VH with L29F, S30T, D32N, L48V, A53P, A54S, F104Y
VL: B3 VL
notes: EGFR/HER3 clone
On to B8, for which the binding result in assay [7] is given as “no binding”; in assay [8] it was “no binding”; in assay [9] it was “no binding”; in assay [10] it was “binds”; in assay [11], “no binding”.

B9: D1.5-122 (mIgG2A) (bispecific antibody, V domains shown)
VH: B1 VH with L29F, S30T, D32N, L48V, A53P, A54S, F104Y
VL: B1 VL with D28N, L29I, T31S, F53S, E92D
On to B9, for which, in assay [3], the “IC50 (read off the curve)” value is roughly 3 nM.

B10: D1.5-121 (phage-displayed Fab clone) (Fab, V domains shown)
VH: B1 VH with L29F, S30T, D32N, L48V, A53P, A54S, F104Y
VL: B1 VL with L29V, A30G, T31S, V33L, F53Y, E92D
notes: EGFR/HER3 clone
As to B10, the binding result in assay [6] is “binds”; in [7], “no binding”; in assay [8], “no binding”; in assay [9], “no binding”; in [10] it was “binds”; in assay [11], “no binding”.

B11: D1.5-115 (phage-displayed Fab clone) (Fab, V domains shown)
VH: B1 VH with L29F, S30T, D32N, L48V, A53P, A54S, F104Y
VL: B1 VL with D28E, L29I, A30F, T31P, F53S, S91A, E92A, E94T
notes: EGFR/HER3 clone
For B11, the binding result in assay [6] is on record as “binds”; in assay [7], “no binding”; in assay [8], “no binding”; in [9], “no binding”; in assay [10], “binds”; in [11], “no binding”.

B12: D1.5-121 (mIgG2A) (bispecific antibody, V domains shown)
VH: B1 VH with L29F, S30T, D32N, L48V, A53P, A54S, F104Y
VL: B1 VL with L29V, A30G, T31S, V33L, F53Y, E92D
Take B12: the binding result in [3] was “binds”.

B13: D1.5-116 (mIgG2A) (bispecific antibody, V domains shown)
VH: B1 VH with L29F, S30T, D32N, L48V, A53P, A54S, F104Y
VL: B1 VL with D28A, L29I, T31S
Turning to B13, in assay [3], the binding result is “binds”.

B14: D1.5-122 (phage-displayed Fab clone) (Fab, V domains shown)
VH: B1 VH with L29F, S30T, D32N, L48V, A53P, A54S, F104Y
VL: B1 VL with D28N, L29I, T31S, F53S, E92D
notes: EGFR/HER3 clone
Regarding B14, the binding result in [7] was “no binding”; in assay [8], “no binding”; in [9], “no binding”; in [10], “binds”.

B15: D1.5-201-2 (phage-displayed Fab clone) (Fab, V domains shown)
VH: B1 VH with L29F, S30T, D32N, L48V, A53P, A54S, F104Y
VL: B5 VL with S26N, L29I, W30A, A31G, F34Y, S56Y, Y57F
B15: the binding result in [4] and in assay [5] was “binds” throughout.

B16: DL11b (bispecific antibody, V domains shown)
VH: B1 VH
VL: B1 VL with D28N, L29I
On to B16, for which the “IC50 of inhibition of MDA-175 cell proliferation” value in assay [1] was in the range of 0.8 to 1 µg/mL.

B17: D1.5-116 (phage-displayed Fab clone) (Fab, V domains shown)
VH: B1 VH with L29F, S30T, D32N, L48V, A53P, A54S, F104Y
VL: B1 VL with D28A, L29I, T31S
notes: EGFR/HER3 clone
Consider B17, for which the binding result in assay [6] was “binds”; in assay [7] it was “no binding”; in assay [8], “no binding”; in assay [9], “no binding”; in assay [10], “binds”; in assay [11] it was “no binding”.

B18: DL3-11b (antibody, V domains shown)
VH: B1 VH with R101K
VL: B1 VL with D28N, L29I
notes: also called DL3-11fb
B18: the binding result in assay [2] is “binds”.

B19: D1.5-115 (mIgG2A) (bispecific antibody, V domains shown)
VH: B1 VH with L29F, S30T, D32N, L48V, A53P, A54S, F104Y
VL: B1 VL with D28E, L29I, A30F, T31P, F53S, S91A, E92A, E94T
With B19, the binding result in assay [3] is listed as “binds”.
